Results from the DeepSol protein solubility set.

Assay: soluble on expression in E. coli; label from the status in PepcDB or PDB records

Sequence | soluble on expression in E. coli
MGSDKIHHHHHHMDRILTFDCYGTLIDTKPVFDAISNIAKNNILNSKDAVNIYVNYEDRLMYGETYIPYDKLIKQVLEYCDMELVTNVFSKSYDEIISVHKRLKPFKEVVESLEKIHKKGYELALMSNSVHDIIDYNLDALGNVFNNVFLSEDIHAYKPQLKFFKYVEERLELKQKKHCHIAKGYWWDIVPCSKLGWRKIWVNRENKKGNKCHEPYEEVHTLDEVINLI | not soluble
MAKVLVLYYSMYGHIETMARAVAEGASKVDGAEVVVKRVPETMPPQLFEKAGGKTQTAPVATPQELADYDAIIFGTPTRFGNMSGQMRTFLDQTGGLWASGALYGKLASVFSSTGTGGGQEQTITSTWTTLAHHGMVIVPIGYAAQELFDVSQVRGGTPYGATTIAGGDGSRQPSQEELSIARYQGEYVAGLAVKLNG | soluble
MGPGTTVRWRRRVSGWRRAGCAALIAGAVALPLSGAARPEIPAPPPAALAAPTAATLDKAYAANRANAAEASRMAADHGDRHRAAADRAMADRSRRLLAFDGRGTGLATEVFGDLARADRVAVLVPGSDTGLDTYGRFRATALALHRQLVAEAPAGTRTAVVAWLGYETPGTVSTTVATTDRADRAAPELRALVGDLRRITGPGTRLALLCHSYGSVVCARAADGLEVADIALVGSPGTGADTAAGLHSEARVWAGRGAEDWVEHVPHVSADLFGTTVGFGTDPVSPAFGARVFDAGDGGHSDYFDPGSRSLTNLARIALGETTEVTHALEHHHHHH | not soluble
MGSDKIHHHHHHMKTRDRIVHASLELFNLNGEPGITTNHIAAHLGMSPGNLYYHFRNKEDIIRSIFDLYQQHLEKGFQPYENKQVDMALLMGYFDALFYTLWQFRFMYANLVIILGRDEELKQKYLGIQQQVLARSSNILQQLKKDKVLDIADDEITPLADTIRMIAGFWISNQLTYSGAANITKSSLYEGLLRVLMLFKAYSTSDSFETFKHLEQHYRTLALEDDQ | not soluble
MGRSHHHHHHGSLVPRGSEQGSNVNHLIKVTDQSITEGYDDSDGIIKAHDAENLIYDVTFEVDDKVKSGDTMTVNIDKNTVPSDLTDSFAIPKIKDNSGEIIATGTYDNTNKQITYTFTDYVDKYENIKAHLKLTSYIDKSKVPNNNTKLDVEYKTALSSVNKTITVEYQKPNENRTANLQSMFTNIDTKNHTVEQTIYINPLRYSAKETNVNISGNGDEGSTIIDDSTIIKVYKVGDNQNLPDSNRIYDYSEYEDVTNDDYAQLGNNNDVNINFGNIDSPYIIKVISKYDPNKDDYTTIQQTVTMQTTINEYTGEFRTASYDNTIAFSTSSGQGQGDLPPEK | soluble
MPAAGQAPGPECPDVLIIGGGPAGCAAAIVLAQQGWAVTLLEKEQHPRFHIGESLLPMNIPILERLGVLEQVRDIGVLKRGADFPNDAGGYNTFRFSHALDAKADYAFQVPRAQFDQVLFARAREVGVDAREQVKVESVAFDGEQPVLQARGVDGVQQFRPRYLLDASGRDTFMGNRLKLKRANAKHQSAAVFSHFRGVTRRPGEDAGNISIYRHAHGWMWLIPLPDDVMSVGAVCYPDYMKTRKGDSEGFLLRTLALNPEVAARMADAERVAPVHATGNYAYECTRMSGPRWLLLGDAYTFVDPMFSSGVFLAMHSAERGAAMVDAVLRAPHREASLQRALSRELARGLSEFKWFIYRFTSPTMRALFAQPQNVWQVEQAVVAMLAGDVFDSPKVRRRLRVFRAIYSVTALSMLPRAWHAWRHRRRQARLGFDGDTLHRDAPLEHHHHHH | not soluble
MGSIIFLEDRAFQGRIYGCTTDCPNLQPYFSRCNSIVVQSGCWMIYERPNYQGHQYFLRRGEYPDYQQWMGLSDSIRSCCLIPPHSGAYRMKIYDRDELRGQMSELTDDCLSVQDRFHLTEIHSLNVLEGSWILYEMPNYRGRQYLLRPGEYRRFLDWGAPNAKVGSLRRVMDLYLEHHHHHH | soluble
MGSDKIHHHHHHMTHEFVTILHTNDLHSHVEHWPRIANWIKTRRAQLQAAGHFVLTFDVGDFIDRYDANTQATWGKANVELLNDCTFDGVTIGNNEGLGLPRDRMEDIYSERRFAVLLANIFENDHGLPKWAEEYRVFVTPKGTRISAFGLTAAYDLTYPLLDWLPAQPVETLEKLSDRVIAQSDIRILLSHLGLPTDQSLARRFKEISVILGAHTHHLLPKGQMVENTLLAAAGKYGENVGEVDLEIDEKHQVVSERAHTIKFDNLPEVESASAFLENWRESGRNILENQIISNLPTDRSTLQQIDDCADALMEKFQTKIAMISSGMFLDELPAGQLNAFQLLKDLPHTIHPMKIDILGSDLLKLFDEINLQHDHLLNQHINGSGFRGDKFGEIKFYGLHEKQVDPKQHYEIASLDHYYFLPWFHSLQSADVSFDFKNILRELTAGYYREKYSHQEAV | not soluble
MGHHHHHHSHALLEKEILEKVSSPFIVSLAYAFESKTHLCLVMSLMNGGDLKFHIYNVGTRGLDMSRVIFYSAQIACGMLHLHELGIVYRDMKPENVLLDDLGNCRLSDLGLAVEMKGGKPITQRAGTNGYMAPEILMEKVSYSYPVDWFAMGCSIYEMVAGRTPFKDYKEKVSKEDLKQRTLQDEVKFQHDNFTEEAKDICRLFLAKKPEQRLGSR | not soluble
MKAAHIIDEARLGIMLNDLRLPTIKTLWPQFAEQADKEGWPAARFLSAIAEHELAERDRRRVERHLAEAHLPPGKTLDSFAFDAVPMVSKAQVMAMTAGDSWLAKGANILLFGPPGGGKSHLAAAIGLALIENGWRVLFTRTTDLVQKLQVARRELQLESAIAKLDKFDLLILDLEHHHHHH | not soluble
MGCGQLDRVDSILVGMSYYNFPSPQGIGNVLVGKAKQTVRIRIPSTNLRKEVVRVGGLLSVSVMAVALSSCSAHPESSLSKSNQLGYAVNDRLVTTNAGSTEGASTNAQLLAGRLYPAPYVSGPKGQLIPNLSMASAQVLPGINQKIVYTISPDAVYSDGEAVTCDDYLLAFTAGTYDYVFDSYMPLMKQIDKVECKPRDREVTVTLKENFGPRWRQLFPAGVILPAHAIARKMGVTLEDLNTVLQSRDVDALQPIAEVWNRGFSLDQFDPDLQVSSGPYKVDRVGDRGEVYLTRNPHYGGQPAEIESVVVWPKGANLKELKDTGSLEIAEVTSSKEIDWLDRNDSTNSFDVQAQSGVLTEELLLANAGVFATRENRQAFASCIDQSSIASESSELSGVEVAPVTARTIRANDPMAGHVKDLTEAHLHSDVEQARRLAGQTIAIGYEGPDARMEAIVANIRRSCEPAGIIVVDAHQEGSGIRDLSRSFTTDHGYQFDKIGTIDVVLKALDPATEFESVATTSNNIAATRQAELSTWDVVPSIPLASQPRVFVVDRRVSNVVLNTDLAGIGWNMDRWFFSKNSK | not soluble
MTYHLQGTTGYGLGDSGRETLDRVMARILGTEAALVRGQFVSGTHAIATALFGVLRPGDHFISVTGDPYDTLEEVIGIRGTGQGSLKDFGVSYDSVPLSEEGTIQHSLVSQGIKPNTKMLILQRSRGYAWRNSLPMEQIAAFVAYVREHFPHLIIFVDNCYGELVEKCEPGDVGADLMAGSLIKNLGGSLAPTGGYIAGRQELVEKAACRLTAPGIGGEVGATLSWQLQFFQGLFFSPLEHHHHHH | not soluble
MSLQTPDTATTAPYLLAGAPTFDLSISQFREDFNSQNPSLPLNEFRAIDSSPDKANLTRAASKINENLYASTALERGTLKIKSIQMTWLPIQGPEQKAAKAKAQEYMAAVIRTLTPLMTKTQSQKKLQSLLTAGKNKRYYTETEGALRYVVADNGEKGLTFAVEPIKLALSESLEGLNKEGHHHHHH | soluble
GPGSMEREQLISSASQPRRTVQSPARWADSSLNEIPETPPESGGAGGKLCGRMSDCIRALQVSIQPIITVVSSGNGSRRNNGGGPTVTEPLVAGRMGEREASSPGRNSFNPPRTRSGRESQPQGTISAVSGPEQHSAEKAPASPITVAGEQRMSASRPASGLASVPATGAEGLAVDHLAPGSGGVPEASTNDIIRAVENDRGMLHTTEQLSAVLERLAEYLPIRVEVELDERGPGGDTSSNCFLHHLCLQILGPVRTTPHSALLGLLEDILLEDCVPTSLRISSIHFADVSFSVEPAPGMQSTEEANNVVSFDALPIFGFTTTRVASGDVAENEKVKKECTERFCAFAKNMLECYSHTTSVRLTRCCFTPSDLGRWLKLPLLQLRRLYFEKCPLTAAHLDALIRLARATSRQSGRGPAFQRLEELQLSGSLTEESVAAVLSYFSDELLDGEFALVSLRLPSLWLRVAQSHPILERQPSLIVTST | not soluble
MATATPVPPRMGSRAGGPTTPLSPTRLSRLQEKEELRELNDRLAVYIDKVRSLETENSALQLQVTEREEVRGRELTGLKALYETELADARRALDDTARERAKLQIELGKCKAEHDQLLLNYAKKESDLNGAQIKLREYEAALNSKDAALATALGDKKSLEGDLEDLKDQIAQLEASLAAAKKQLADETLLKVDLENRCQSLTEDLEFRKSMYEEEINETRRKHETRLVEVDSGRQIEYEYKLAQALHEMREQHDAQVRLYKEELEQTYHAKLENARLSSEMNTSTVNSAREELMESRMRIESLSSQLSNLQKESRACLERIQELEDLLAKEKDNSRRMLTDKEREMAEIRDQMQQQLNDYEQLLDVKLALDMEISAYRKLLQGEEERLKLSPSPSSRVTVSRASSSRSVRTTRGKRKRVDVEESEASSSVSISHSASATGNVCIEEIDVDGKFIRLKNTSEQDQPMGGWEMIRKIGDTSVSYKYTSRYVLKAGQTVTIWAANAGVTASPPTDLIWKNQNSWGTGEDVKVILKNSQGEEVAQRSTVFKTTIPEEEEEEEEAAGVVVEEELFHQQGTPRASNRSCAIM | soluble
MAHHHHHHMCVRTWQKCPGLVSVKHRCIGGTLTNDGLRTEQYSHAPGPVRYFFLCLYDALLAHQQRLDQYWLNPLYQLNVHSFPFVYLYIVHFNTKIIFSFSFKANKNFFPLRLTTGKNCRKTKSTCRQPPTPNIDDRSSL | not soluble
MAEDEIVVEEEQSQPQEITPVPPSSSSSPSLVVEDDDEMKLKHLEFIQVAAVYFAACFSTLYELAKDNAGPLKLGVENIEDCVRTVLAPLYEKFHDVPFKLLLFVDRKVDDVFFDVETYVPSLVKQASSQALTVATEVQRTGVVDTTKSIARSVRDKYEPAAEYYAATLWRLLNQLPLFPEVAHLVIPTAFYWSEKYNDAVRYVGDRDYFGAEYLPMIPIEKISDILEQDQCRAD | not soluble
MGSDKIHHHHHHVAKSIAGGVRPGIIIDIEHRLLKQIIVGKQKAAASMFDDLDRELENDANKLAIERDAVFERLSKQIQARQVYEAVSKQLITTVNSTLDNQLASPELLIQHSGINASQMLMLELLQQKNLDLSRLRLLIADLPWLARDLTNMVNSPSFRHKRQQRSDVKVTEIKLVLNFIGVENLRLLIPYYCLRNWLPTGHANLLWTTRKLWRYAMVTGIAAKALAQLNEQDMATAYTSSLLYQLGVSVVLKNGAKVYESIWGNWLREASASRDKELHDAVLATEFPAEDIYQQVLQHAHTLNWRLPELLDFSASGLTQTQRELDTCLSYSELSTEAALVARASCYAKVLMLDEMRLISPKEKQMMFDYYQLSEQEQIRLKGQNYRKLDLY | not soluble
MIFKVGDTVVYPHHGAALIEAIETRTIKGEQKEYLVLKVAQGDLTVRVPADNAEYVGVRDVVGQEGLDKVFQVLRAPHTEEPTNWSRRYKANLEKLASGDVNKVAEVVRDLWRREQDRGLSAGEKRMLAKARQILVGELALAEGTDSDKAETILDEVLAAAS | not soluble
